Laboratory results published in publication PMC5372246, “Co-production of hydrogen and ethanol from glucose in Escherichia coli by activation of pentose-phosphate pathway through deletion of phosphoglucose isomerase (pgi) and overexpression of glucose-6-phosphate dehydrogenase (zwf) and 6-phosphogluconate dehydrogenase (gnd)” (Biotechnology for Biofuels, 2017).

Tested on: T1, NC(=O)c1ccc[n+]([C@@H]2O[C@H](COP(=O)(O)OP(=O)(O)OC[C@H]3O[C@@H](n4cnc5c(N)ncnc54)[C@H](OP(=O)(O)O)[C@@H]3O)[C@@H](O)[C@H]2O)c1
T1 construct: full-length, C-terminal His-tag, Ni-NTA purified from E. coli, 55 kDa on SDS-PAGE
Assay: purified protein
Format: biochemical, Escherichia coli
Conditions: co-substrate glucose-6-phosphate, general assay: Tris-HCl pH 7.5, 1 mM MgCl2, 30 °C

Zwf (ZE), glucose-6-phosphate dehydrogenase (Escherichia coli K-12)
Km: 15 µM
